Test results from the supplement of paper PMC10567573.
± gives the standard deviation.

Assay: protein stability index of a GFP-peptide fusion (GPS, HEK-293T) (PSI 1-6); higher = more stable
Details: c terminus: a fixed tail appended
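Note: 24-mer peptide tiles fused after GFP, lentivirally expressed, FACS-sorted into six equal bins by GFP/DsRed ratio, decoded by Illumina sequencing, PSI is the read-weighted mean bin number.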

| Sequence | protein stability index (treatment: DMSO) | protein stability index (treatment: MLN4924 1 uM, 8 h) |
| --- | --- | --- |
| TLAVTCQLPIDRGGGEGKAMYIDT [RAD51] | 3.14 ± 0.25 | 3.33 ± 0.32 |
| QAQIHGLPVPPTPGLLSLATTSAS [TFE3] | 3.86 ± 0.11 | 3.87 ± 0.18 |
| TENSALQLQVTEREEVRGRELTGL [LMNB1] | 5.14 ± 0.2 | 5.13 ± 0.28 |
| QAALQKQQEVVVAGSSLPTSSKVN [ACBD3] | 5.04 ± 0.18 | 5.03 ± 0.063 |
| TVNIHRLHVKRSMGWKKACDELEL [ZMYND11] | 2.61 ± 0.32 | 2.77 ± 0.36 |
| MGEPAGVAGTMESPFSPGLFHRLD [ATF6] | 3.58 ± 0.14 | 3.79 ± 0.36 |
| RGGRQKYKRRIDAENSPYLNPQLV [ESRRG] | 3.59 ± 0.25 | 3.93 ± 0.21 |
| TIQKGSYTFVPWLLSFKRGSALEE [TNFSF13B] | 2.11 ± 0.15 | 2.04 ± 0.22 |
| LKILKPSIPLERIHFDSYITCVSG [FBXO33] | 2.22 ± 0.41 | 2.23 ± 0.42 |
| DRMARPSGRSGHNTRGTGSSSSGV [CSNK1G3] | 4.87 ± 0.13 | 5.03 ± 0.098 |
| METQAEQQELETLPTTKMAQTNPT [CRYBA1] | 5.24 ± 0.3 | 5.3 ± 0.29 |
| VMLKRIHSLYRRTGASFQKAQQEF [SCAMP3] | 2.49 ± 0.35 | 2.68 ± 0.46 |
| AKKFRKAVTDLLGRRQRKSEKRRD [WASL] | 3.88 ± 0.52 | 3.89 ± 0.2 |
| RVYLATDDPSLLKEAKTKYPNYEF [FUT8] | 2.95 ± 0.36 | 2.9 ± 0.28 |
| PKLFCPKNRSFDIDAIYSVIDDAK [PLD5] | 3 ± 0.62 | 2.89 ± 0.27 |
| PFIVTLEGNALQGPILQKDYVQLE [ZNF449] | 2.46 ± 0.18 | 2.59 ± 0.31 |
| ASSASEPQGLFVEALSVPLSLCVS [CLPTM1] | 2.31 ± 0.2 | 2.25 ± 0.36 |
| EITEELPSSQLMPVKKQLQGASWE [ZNF396] | 4.09 ± 0.14 | 4.38 ± 0.22 |
| KHGFSWAVPKFMKRIKVPDYKDRS [DLC1] | 2.56 ± 0.08 | 2.94 ± 0.31 |
| YEWARDHRAHHKFSETHADPHNSR [SCD] | 3.96 ± 0.28 | 4.12 ± 0.18 |
| CRLINEDVNEQVMQVLGPEDLQSI [CEP70] | 3.65 ± 0.32 | 3.54 ± 0.28 |
| TTQSAEVGAAETTLTELRRTVQSL [KRT18] | 4.63 ± 0.22 | 4.55 ± 0.4 |
| SDKIGSTIDDTISKFRRKDREDSP [CLINT1] | 5.1 ± 0.4 | 5.21 ± 0.3 |

| Sequence | protein stability index (treatment: DMSO) | protein stability index (treatment: MLN4924 1 uM, 8 h) |
| --- | --- | --- |
| YTGRAPNLDKMADNLLAAADKYAL [SPOPL] | 2.78 ± 0.42 | 3.06 ± 0.5 |
| LAEMKDDSDSEKQQQIHHIKNLYA [VPS39] | 4.16 ± 0.25 | 4.35 ± 0.44 |
| GFFDFETFDVDEYEHYERVENGDF [CDC14A] | 4.14 ± 0.51 | 4.49 ± 0.52 |
| GPRPVQSVVPEMEESGAQLLLEML [CDK4] | 3.91 ± 0.66 | 3.71 ± 0.15 |
| GGYGSSFGGVDGLLAGGEKATMQN [KRT17] | 4.06 ± 0.12 | 4.395 ± 0.027 |
| LFSKWFSESGKLVTKMFQKIQDLI [TRIP13] | 2.98 ± 0.52 | 2.49 ± 0.39 |
| EVLLGTPYDLAIDMWSLGCILVEM [DYRK1B] | 2.79 ± 0.37 | 2.96 ± 0.51 |
| VLELHHSKLDTTKALNLLPANTQI [VPS39] | 3.03 ± 0.14 | 3.12 ± 0.15 |
| ATYIFIFIGETLLSMNWAIVADIL [SPNS1] | 3.13 ± 0.39 | 2.68 ± 0.74 |
| TIGNLVPQKTYSVKVLAFTSIGDG [PTPRD] | 2.39 ± 0.16 | 2 ± 0.33 |
| DAQLLPHHSLQAHFRPRFHPLPTV [TMEM192] | 3.22 ± 0.18 | 3.22 ± 0.16 |
| NKTNKNSVSSCDQEHQSALEEAKQ [SMOC2] | 5.13 ± 0.43 | 5.57 ± 0.3 |
| KESMSEADRAQKMDGESEEEQESV [EHMT1] | 5.71 ± 0.35 | 5.59 ± 0.23 |
| CAVLDDSIYLVGGYSWSMGAYKSS [KLHL14] | 2.52 ± 0.64 | 2.17 ± 0.64 |
| CREQLDIMNDLSNRVWSISQEPDP [TRIM14] | 3.43 ± 0.28 | 3.43 ± 0.21 |
| ITHTREEQPHGRSRRREQSSSRNS [ZNF8] | 5.33 ± 0.37 | 5.41 ± 0.13 |
| TGLSGGKRPSQEEDTQSIGPKVQR [CRY1] | 5 ± 0.33 | 5.04 ± 0.23 |
| SYKYTSRYVLKAGQTVTIWAANAG [LMNB1] | 2.24 ± 0.25 | 1.87 ± 0.25 |
| VYKSLLLLAYLIRNGSERVVTSAR [CLINT1] | 2.57 ± 0.51 | 2.59 ± 0.39 |
| GAAESPYGHPAGIDYKTTTILLDG [RAB40B] | 4 ± 0.067 | 3.96 ± 0.25 |
| QNPRQVAQSEAEKKLKKDDKKKEL [ZC3H15] | 5.52 ± 0.22 | 5.58 ± 0.19 |
| YMRYSRKVWDQVKASNPDLKLWEI [SMARCE1] | 2.18 ± 0.73 | 1.95 ± 0.066 |
